Laboratory results reported in the nanobody polyreactivity screen of Harvey et al. (2022).

Assay: yeast display, Sf9 membrane polyspecificity reagent, FACS + sequencing; frameworks hold sequencing errors
Method in brief: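 In a synthetic yeast display library (Saccharomyces cerevisiae BJ5465), nanobody expression was induced with galactose for 36–48 hours. FACS gates were set low and high (top ~1%) using anti-HA fluorescence for expression and streptavidin fluorescence for binding of the Sf9 membrane reagent. Each polyreactivity label is drawn from the gate of origin.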

Row | Sequence | polyreactivity (PSR sort gate)
1 | QVHLVESGAGLVQAGGSLRLSCAASGRVFYYYAMGWYRQAPGKEREFVATISWSGVRTYYADSVKGRFTISRDNAKNTVYLQMNSLKPEDTAVYYCNADYYSPKFPSGMNYWGQGTQVTVSS | high polyreactivity
2 | QVQLVESGGGLVQAGGSLRLICAASGITFARNTRGWYRQAPGKERELVAAIDSGGNTYADSVKGRFTISRDNAKNTVYLQMNSLKPEDTAVYYCAVDGGEFSSYGYWGQGTQVTVSS | low polyreactivity
3 | QVQLVESGRGLVQAGGSLRLSCAASGSTFLGNAMGWYREAPGKARELVAAITSAGSTYYADSVKGRFTISRDNAKNTVYLQMNSLKPEDTAVYYCNADSTWGGYGFDDWGQGTQVTVSS | low polyreactivity
4 | QVQLEESGGGLVQAGGSLRLSCAASGRPCWLMLWDGIDRRLGKKGSWLPLTASTYYADSVKGRFTISRDNAKNTVYLQMNSLKPEDTAVYYCAADLYYGDYRTLPIADEYDYWGQGTQVTVSS | low polyreactivity
5 | QVQLVESGGGLVQAGGSLRLSCAASGYTFYYYAMGWYRQAPGKEREFVAAISWRGGRTYYADSVKGRFTISRDNAKNTVYLQMNSLKPEDTAVYYCAARRDGWTFWKYDYWGQGTQVTVSS | high polyreactivity
6 | QVQLVESGGGLVQEGGSLRLSCAASGRISTYYTMGWYRQAPGKERELVAAISWSGTSTYYADSVKGRFTISRDNAKNTVYLQMNSLKPEDTAVYYCNARWRYPLDSVTDDYWGQGTQVTVSS | high polyreactivity
7 | QVQLVESGAGLVQEGGSLRLSCAASGRIFQTYTMGWYRQAPGKERELVAAISASGGRTYYADSVKGRFTISRDNAKNTVYLQMNSLKPEDTAVYYCAADIRGYDYWGQGTQVTVSS | high polyreactivity
8 | QVQLVESGGGLVQAGGSLRLSCAASGLTFDWYALGWYRQAPGKERELVAAISWNGVSTDYADSVKGRFTISRDNAKNTVYLQMNSLKPEDTAVYYCNAKGQRNKRWRGYWGQGTQVTVSS | high polyreactivity
9 | QVQLVESGGGLVQAGGSLRLSCAASGRTSDGYAMGWYRPAPGKERELVAGITEGGGDTYYADSVKGRFTISRDNAKNTVYLQMNSLKPEDTAVYYCNAVEGSRLPYDYWGQGTQVTVSS | low polyreactivity
10 | QVQLVESGGGLVQAGGSLRLSCAASGSTFTLYAMGWYRQAPGKERELVATITGSGGSTNYADSVKGRFTISRDNAKNTVYLQMNSLKPEDTAVYYCAADYAVYSFTEFNYWGQGSQVTVSS | high polyreactivity
11 | QVQHVESGGGIVQAVGSLRLSCAASGSIFYYNAMGWYRQAPGKERELVAAISSGGSTYYADSVKGRFTISRDNAKNTVYLQMNSLKPEDTAVYYCAAKPAFRYLYSRYYPELGGYWGQGTQVTVSS | high polyreactivity
12 | QVQLVESGGGLVQAGGSLRLSCAASGRIFSRYTMGWYRQAPGKERELVAAISSRGGSTYYADSVKVRFTISRDNAKNTVYLQMNSLKPEDTAVYYCNTPSYSGSSPYDHWGQGTQVTVSS | high polyreactivity
13 | QVQLVESGGGLVQAGGSLRLSCAASGFTFRRYAMGWYRQAPGKERELVATITKGGGSTYYADSVKGRFTISRDNAKNTVYLQMNSLKPEDTAVYYCAKRYPYGLTVGASDYWGQCTQVTVSS | high polyreactivity
14 | QVQLVESGGGLVQAGRSLRLSSAASGSIVAPNPMGWYRQAPGKEREYVAAITLDDGRTYYADSVKGRFTISRDNSNNTVYLHMNSRKPEDTAVYYCNAEWRGYSVYWRTRYDSWGQGTHVTVSS | low polyreactivity
15 | QVQLVESGGGLVQAGGSLRLSCAASGSIFQAYAMGWYRQAPGKERELVASISQSGDSTYYADSVKGRFTISRDNAKNTVYLQMNSLNPVDTAVYYCAAVQYGHRRGRVSVRRRLDYWGQGTQVTVSS | low polyreactivity
16 | QVQLVESGGGLVQAGGSLSLSCAASGSTFIHNAMGWYRQAPGKERELVAAITSGGSTYYADSVKGRFTISRDNAKNTVYLQMNSLKPEDTAVYYCNRVSWRYSTMEYWGHGTQVTVSS | high polyreactivity
17 | QVQLVESGGGLVQAGGSLRLSCAASGSIFRVYAMGWYRQAPGKEREFLAAITTRGGSTYYADSVKGRFTISRDNAKNTVYLQMNSLKPEDTAVYYCAARGWVSAYYGYDYWGQGTQVTVSS | high polyreactivity
18 | QVQLVESGGGLVQAGGSLRLSSAASGSIFYGYAMGWYRQAPGKERELVATISWSAGSTYYADSVKGRFTISRDNAKTTVYLQMNSLKPEDTAVYYCATRVFTSSYRYRYGYWGQGTQVTVSS | high polyreactivity
19 | QVQLQESGCRLVQAGGRLRMSCAASGNIIDADIMGWYRQAPGKERELVASITDGRRTNYADSVKGRYTNSRDSEKNTVYMQMNSLKPEDTAVYYCAAIAYPVVPTYFDYDSDYFHWGQGTQVTVSS | high polyreactivity
20 | QVQLVESGGGLVQAGGSLRLSCAASGFTFYGNAMGWYRHAPGKERELVAAIRSGGITYYADSVKGRFTISRDNAKNTVYLQMNSLKPEDTSVYYCAAYSDYYLDQWYGYWGQGTQVTVSS | low polyreactivity
21 | QVQLVESGGGLVQAGGSLRVTCAASGRIFQRYVMGWYRQAPGKERELVAAITWSGGSTYADSVKGRFTISRDNAKNTVYLQMNSLKTEDTAVYYFAARVPYNYWGMYYLYDYWGQGTQVTVSS | high polyreactivity
22 | QVQLVESGGGLVQAGGSLRLSCAASGFIFLYYAMGWYRQAPGKERELVAAITTRGGRTYYADSVKGRFTISRDNAKNTVYLQMNSLIPEDTAVYYCAADHLYWGLEYESWGQGTQVTVSS | low polyreactivity
